B1: His6-C-ECSIT (domain or fragment, human, UniProt Q9BQ95 249-431, looked up)
chain: LPKDSTGAADPPQPHIVGIQSPDQQAALARHNPARPVFVEGPFSLWLRNKCVYYHILRADLLPPEEREVEETPEEWNLYYPMQLDLEYVRSGWDNYEFDINEVEEGPVFAMCMAGAHDQATMAKWIQGLQETNPTLAQIPVVFRLAGSTRELQTSSAGLEEPPLPEDHQEEDDNLQRQQQGQS
B2: Loop12-ACAD9 (enzyme, human)
chain: AFAKELFLGKIKKKEVFPFPEVSQDELNEINQFLGPVEKFFTEEVDSRKIDQEGKIPDETLEKLKSLGLFGLQVPEEYGGLGFSNTMYSRLGEIISMDGSITVTLAAHQAIGLKGIILAGTEEQKAKYLPKLASGEHIAAFCLTEPASGSDAASIRSRATLSEDKKHYILNGSKVWITNGGLANIFTVFAKTEVVDSDGSVKDKITAFIVERDFGGVTNGKPEDKLGIRGSNTCEVHFENTKIPVENILGEVGDGFKVAMNILNSGRFSMGSVVAGLLKRLIEMTAEYACTRKQFNKRLSEFGLIQEKFALMAQKAYVMESMTYLTAGMLDQPGFPDCSIEAAMVKVFSSEAAWQCVSEALQILGGLGYTRDYPYERILRDTRILLIFEGTNEILRMYIALTGLQHAGRILTTGGSGGSGGSGGSDLGLTGNHGVVHPSLADSANKFEENTYCFGRTVETLLLRFGKTIMEEQLVLKRVANILINLYGMTAVLSRASRSIRIGLRNHDHEVLLANTFCVEAYLQNLFSLSQLDKYAPENLDEQIKKVSQQILEKRAYICAHPLDRTC
B3: ACAD9 (wild type, without a tag) (enzyme, human, UniProt Q9H845 38-621, looked up)
chain: AFAKELFLGKIKKKEVFPFPEVSQDELNEINQFLGPVEKFFTEEVDSRKIDQEGKIPDETLEKLKSLGLFGLQVPEEYGGLGFSNTMYSRLGEIISMDGSITVTLAAHQAIGLKGIILAGTEEQKAKYLPKLASGEHIAAFCLTEPASGSDAASIRSRATLSEDKKHYILNGSKVWITNGGLANIFTVFAKTEVVDSDGSVKDKITAFIVERDFGGVTNGKPEDKLGIRGSNTCEVHFENTKIPVENILGEVGDGFKVAMNILNSGRFSMGSVVAGLLKRLIEMTAEYACTRKQFNKRLSEFGLIQEKFALMAQKAYVMESMTYLTAGMLDQPGFPDCSIEAAMVKVFSSEAAWQCVSEALQILGGLGYTRDYPYERILRDTRILLIFEGTNEILRMYIALTGLQHAGRILTTRIHELKQAKVSTVMDTVGRRLRDSLGRTVDLGLTGNHGVVHPSLADSANKFEENTYCFGRTVETLLLRFGKTIMEEQLVLKRVANILINLYGMTAVLSRASRSIRIGLRNHDHEVLLANTFCVEAYLQNLFSLSQLDKYAPENLDEQIKKVSQQILEKRAYICAHPLDRTC
B4: ACAD9 Arg469Trp (enzyme, human, UniProt Q9H845 38-621, looked up)
chain: AFAKELFLGKIKKKEVFPFPEVSQDELNEINQFLGPVEKFFTEEVDSRKIDQEGKIPDETLEKLKSLGLFGLQVPEEYGGLGFSNTMYSRLGEIISMDGSITVTLAAHQAIGLKGIILAGTEEQKAKYLPKLASGEHIAAFCLTEPASGSDAASIRSRATLSEDKKHYILNGSKVWITNGGLANIFTVFAKTEVVDSDGSVKDKITAFIVERDFGGVTNGKPEDKLGIRGSNTCEVHFENTKIPVENILGEVGDGFKVAMNILNSGRFSMGSVVAGLLKRLIEMTAEYACTRKQFNKRLSEFGLIQEKFALMAQKAYVMESMTYLTAGMLDQPGFPDCSIEAAMVKVFSSEAAWQCVSEALQILGGLGYTRDYPYERILRDTRILLIFEGTNEILRMYIALTGLQHAGRILTTRIHELKQAKVSTVMDTVGWRLRDSLGRTVDLGLTGNHGVVHPSLADSANKFEENTYCFGRTVETLLLRFGKTIMEEQLVLKRVANILINLYGMTAVLSRASRSIRIGLRNHDHEVLLANTFCVEAYLQNLFSLSQLDKYAPENLDEQIKKVSQQILEKRAYICAHPLDRTC
B5: ACAD9-His6 (enzyme, human, UniProt Q9H845 38-621, looked up)
chain: AFAKELFLGKIKKKEVFPFPEVSQDELNEINQFLGPVEKFFTEEVDSRKIDQEGKIPDETLEKLKSLGLFGLQVPEEYGGLGFSNTMYSRLGEIISMDGSITVTLAAHQAIGLKGIILAGTEEQKAKYLPKLASGEHIAAFCLTEPASGSDAASIRSRATLSEDKKHYILNGSKVWITNGGLANIFTVFAKTEVVDSDGSVKDKITAFIVERDFGGVTNGKPEDKLGIRGSNTCEVHFENTKIPVENILGEVGDGFKVAMNILNSGRFSMGSVVAGLLKRLIEMTAEYACTRKQFNKRLSEFGLIQEKFALMAQKAYVMESMTYLTAGMLDQPGFPDCSIEAAMVKVFSSEAAWQCVSEALQILGGLGYTRDYPYERILRDTRILLIFEGTNEILRMYIALTGLQHAGRILTTRIHELKQAKVSTVMDTVGRRLRDSLGRTVDLGLTGNHGVVHPSLADSANKFEENTYCFGRTVETLLLRFGKTIMEEQLVLKRVANILINLYGMTAVLSRASRSIRIGLRNHDHEVLLANTFCVEAYLQNLFSLSQLDKYAPENLDEQIKKVSQQILEKRAYICAHPLDRTC
B6: ACAD9 Arg532Trp (enzyme, human, UniProt Q9H845 38-621, looked up)
chain: AFAKELFLGKIKKKEVFPFPEVSQDELNEINQFLGPVEKFFTEEVDSRKIDQEGKIPDETLEKLKSLGLFGLQVPEEYGGLGFSNTMYSRLGEIISMDGSITVTLAAHQAIGLKGIILAGTEEQKAKYLPKLASGEHIAAFCLTEPASGSDAASIRSRATLSEDKKHYILNGSKVWITNGGLANIFTVFAKTEVVDSDGSVKDKITAFIVERDFGGVTNGKPEDKLGIRGSNTCEVHFENTKIPVENILGEVGDGFKVAMNILNSGRFSMGSVVAGLLKRLIEMTAEYACTRKQFNKRLSEFGLIQEKFALMAQKAYVMESMTYLTAGMLDQPGFPDCSIEAAMVKVFSSEAAWQCVSEALQILGGLGYTRDYPYERILRDTRILLIFEGTNEILRMYIALTGLQHAGRILTTRIHELKQAKVSTVMDTVGRRLRDSLGRTVDLGLTGNHGVVHPSLADSANKFEENTYCFGRTVETLLLRFGKTIMEEQLVLKWVANILINLYGMTAVLSRASRSIRIGLRNHDHEVLLANTFCVEAYLQNLFSLSQLDKYAPENLDEQIKKVSQQILEKRAYICAHPLDRTC
B7: ACAD9 Glu426Gln (enzyme, human, UniProt Q9H845 38-621, looked up)
chain: AFAKELFLGKIKKKEVFPFPEVSQDELNEINQFLGPVEKFFTEEVDSRKIDQEGKIPDETLEKLKSLGLFGLQVPEEYGGLGFSNTMYSRLGEIISMDGSITVTLAAHQAIGLKGIILAGTEEQKAKYLPKLASGEHIAAFCLTEPASGSDAASIRSRATLSEDKKHYILNGSKVWITNGGLANIFTVFAKTEVVDSDGSVKDKITAFIVERDFGGVTNGKPEDKLGIRGSNTCEVHFENTKIPVENILGEVGDGFKVAMNILNSGRFSMGSVVAGLLKRLIEMTAEYACTRKQFNKRLSEFGLIQEKFALMAQKAYVMESMTYLTAGMLDQPGFPDCSIEAAMVKVFSSEAAWQCVSEALQILGGLGYTRDYPYERILRDTRILLIFQGTNEILRMYIALTGLQHAGRILTTRIHELKQAKVSTVMDTVGRRLRDSLGRTVDLGLTGNHGVVHPSLADSANKFEENTYCFGRTVETLLLRFGKTIMEEQLVLKRVANILINLYGMTAVLSRASRSIRIGLRNHDHEVLLANTFCVEAYLQNLFSLSQLDKYAPENLDEQIKKVSQQILEKRAYICAHPLDRTC
B8: ACAD9 Arg518His (enzyme, human, UniProt Q9H845 38-621, looked up)
chain: AFAKELFLGKIKKKEVFPFPEVSQDELNEINQFLGPVEKFFTEEVDSRKIDQEGKIPDETLEKLKSLGLFGLQVPEEYGGLGFSNTMYSRLGEIISMDGSITVTLAAHQAIGLKGIILAGTEEQKAKYLPKLASGEHIAAFCLTEPASGSDAASIRSRATLSEDKKHYILNGSKVWITNGGLANIFTVFAKTEVVDSDGSVKDKITAFIVERDFGGVTNGKPEDKLGIRGSNTCEVHFENTKIPVENILGEVGDGFKVAMNILNSGRFSMGSVVAGLLKRLIEMTAEYACTRKQFNKRLSEFGLIQEKFALMAQKAYVMESMTYLTAGMLDQPGFPDCSIEAAMVKVFSSEAAWQCVSEALQILGGLGYTRDYPYERILRDTRILLIFEGTNEILRMYIALTGLQHAGRILTTRIHELKQAKVSTVMDTVGRRLRDSLGRTVDLGLTGNHGVVHPSLADSANKFEENTYCFGRTVETLLLHFGKTIMEEQLVLKRVANILINLYGMTAVLSRASRSIRIGLRNHDHEVLLANTFCVEAYLQNLFSLSQLDKYAPENLDEQIKKVSQQILEKRAYICAHPLDRTC
B9: very long chain acyl-CoA dehydrogenase (VLCAD) (enzyme, human, UniProt P49748 41-655, looked up)
chain: AGGAAQLALDKSDSHPSDALTRKKPAKAESKSFAVGMFKGQLTTDQVFPYPSVLNEEQTQFLKELVEPVSRFFEEVNDPAKNDALEMVEETTWQGLKELGAFGLQVPSELGGVGLCNTQYARLVEIVGMHDLGVGITLGAHQSIGFKGILLFGTKAQKEKYLPKLASGETVAAFCLTEPSSGSDAASIRTSAVPSPCGKYYTLNGSKLWISNGGLADIFTVFAKTPVTDPATGAVKEKITAFVVERGFGGITHGPPEKKMGIKASNTAEVFFDGVRVPSENVLGEVGSGFKVAMHILNNGRFGMAAALAGTMRGIIAKAVDHATNRTQFGEKIHNFGLIQEKLARMVMLQYVTESMAYMVSANMDQGATDFQIEAAISKIFGSEAAWKVTDECIQIMGGMGFMKEPGVERVLRDLRIFRIFEGTNDILRLFVALQGCMDKGKELSGLGSALKNPFGNAGLLLGEAGKQLRRRAGLGSGLSLSGLVHPELSRSGELAVRALEQFATVVEAKLIKHKKGIVNEQFLLQRLADGAIDLYAMVVVLSRASRSLSEGHPTAQHEKMLCDTWCIEAAARIREGMAALQSDPWQQELYRNFKSISKALVERGGVVTSNPLGF

Each binder was assayed against B3 (assay: SEC).
With B1 the “stoichiometry N” value was 1 C-ECSIT chains per ACAD9 chain (one tetramer with two dimers).

Biological target: the molecule itself
Assay: SEC
In the case of B2, the “stoichiometry N” value is reported as 2. B3 was tested, and the “stoichiometry N” value was 2. In the case of B4, the “stoichiometry N” value is reported as 2. For B5, the “stoichiometry N” value was 2. For B6, the “stoichiometry N” value was 2. For B7, the “stoichiometry N” value was 2. For B8, the “stoichiometry N” value was 2. With B9 the “stoichiometry N” value was 2. B1 was tested, and the “stoichiometry N” value was 4.

From paper doi:10.1101/2021.01.07.425795 (bioRxiv, 2021)
